Source: patent publication US7378498B2, “Protein encoded by a nucleic acid” (The Johns Hopkins University School of Medicine, priority 1998, dated 2008)
Residue numbers refer to the chain shown, from its start. In names and notes the source's numbering stands. Values belong to the molecule of their own block, whether it stands above or below them.

Legend:
[1] = test system: mGluR-evoked Ca^+2 responses in Purkinje cells; assay: Fura-2 ratio imaging of quisqualate-evoked Ca2+ mobilization in transfected cerebellar Purkinje cells; format: cell-based, mouse
Excerpt: The truncated Homer protein used lacks the coiled-coil domain and is unable to form a bridge linking the mGluR at the cell surface with intracellular inositol trisphosphate receptors. The truncated form of Homer protein resembled Homer 1a with the exception of 11 residues at the carboxy-terminal. This form of Homer results in enhanced expression of Homer protein as compared with transfection of Homer 1a in heterologous cells. The Homer protein was introduced into Purkinje cells in primary cerebellar cultures and glutamate induced effects on calcium mobilization was measured.
Embryonic mouse cerebellar cultures were prepared and maintained according to the method of Schilling et al. (Schilling et al., Neuron 7:891 1991). At 4-5 DIV, cultures were transfected with plasmids coding for E-GFP (Clontech) and either full-length Homer 1b or an IEG form of Homer 1. The IEG form of Homer 1 was a 186 amino acid amino-terminal fragment of Homer 1b. Plasmids were purified by cesium banding. Three combinations of the plasmids were transfected. Group I (control), 20 Tg of E-GFP and 40 Tg of pRK5 vector; group II, 20 Tg of E-GFP and 40 Tg of pRK5 Homer 1 IEG; group III: 20 Tg of E-GFP and 40 Tg of pRK5 Homer 1b. Plasmid DNA was mixed with gold particles (0.6 micron), and coated onto plastic tubing. DNA was then ballistically transfected into cells according to the manufacturer's protocol (Helios Gene Gun System, BIO-RAD). After transfection, cultures were returned to the incubator and maintained for an additional […] for a total of 7-8 DIV at the time of use for imaging experiments.
Patch electrodes were attached to the somata of GFP-expressing Purkinje cells and a holding potential of −60 mV was applied. Micropressure electrodes (1 Tm tip diameter) were filled with quisqualate (100 Tm in external saline) and were positioned ˜20 Tm away from large-caliber dendrites. Test pulses were delivered using positive pressure (6 psi, 1 sec). Cells were bathed in a solution that contained (in mM) NaCl (140), KCl (5), EGTA (0.2), MgCl2 (0.8), HEPES (10), glucose (10), tetrodotoxin (0.005), and picrotoxin (0.1), adjusted to pH 7.35 with NaOH, which flowed at a rate of 0.5 ml/m The recording electrode contained CsCl (135), HEPES (10), fura-2 K5 salt (0.2), and Na2-ATP (4), adjusted to pH 7.35 with CSOH. Patch electrodes yielded a resistance of 3-5 MA when measured with the internal and external salines described above.
Fura-2 ratio imaging of intracellular free Ca^2+, was accomplished by measuring the background corrected fluorescence ratio at 340 and 380 nm excitation using a cooled CCD camera system, as previously described (Linden et al., J Neurosci 15:5098 1995). Exposure times were 200 msec per single wavelength image. Experiments were conducted at room temperature. Enhanced GFP is weakly excited by illumination in the 380-400 nm spectrum. Based upon the bandpass characteristics of our 340HT15 and 380HT10 excitation filters and the absorption spectrum of enhanced GFP (Clontech), we estimate that <1% of the signal at 340 nm excitation and <5% of the signal at 380 nm excitation is contributed by GFP, even in those cells where the fura/GFP loading ratio is smallest. This could lead to a small (<5%) systemic underestimation of free calcium concentration that should distribute randomly across experimental groups.
Calcium mobilization in the absence of influx was measure by ratio imaging fura-2 in Purkinje cells bathed in Ca^+2-free external saline and stimulated with a micropressure pulse of quisqualate, a metabotropic glutamate receptor agonist (Linden, Neuron 17:483 1996). […] The decay phase of the Ca^+2 response appeared somewhat slower in neurons transfected with the truncated form. […]

[2] = test system: GST-mGluR5 or GST-Shank3 (residues 1143-1408); assay: GST pull-down binding of Homer EVH1 point mutants; parameters: key: wild-type (+); (−) indicates substantially reduced binding relative to wild-type (+); details: GST pull-down of myc-tagged mutants from HEK293 lysates, relative to wild-type

Molecule: CC(N)(C(=O)O)c1ccc(C(=O)O)cc1 (single isomer, unassigned; (+)) [(+)-MCPG, reference compound]
- block of quisqualate-evoked Ca^+2 transient ([1]; 500 TM in the bath): completely blocked

Molecule: C1CCC[C@H]2CCCN3CC[C@@H](CCCCCC[C@@H]4CCCN5CC[C@@H](CC1)O[C@@H]45)O[C@@H]23 [xestospongin C, reference compound]
- block of quisqualate-evoked Ca^+2 transient ([1]; 1 TM in the internal saline): completely blocked

- Binding [2]: +
B1: F7R: point mutant of the Homer EVH1 domain (protein)
chain: MGEQPIRSTRAHVFQIDPNTKKNWVPTSKHAVTVSYFYDSTRNVYRIISLDGSKAIINSTITPNMTFTKTSQKFGQWADSRANTVYGLGFSSEHHLSKFAEKFQEFKEAARLAKEKSQEK
modifications: left off: small tags and cut ends
notes: point mutant of the Homer EVH1 domain

- Binding [2]: +
B2: F74A: point mutant of the Homer EVH1 domain (protein)
chain: B1 chain with R7F, F74A
modifications: left off: small tags and cut ends
notes: as for B1

- Binding [2]: −
B3: R42E: point mutant of the Homer EVH1 domain (protein)
chain: B1 chain with R7F, R42E
modifications: left off: small tags and cut ends
notes: as for B1

- Binding [2]: +
B4: N58A: point mutant of the Homer EVH1 domain (protein)
chain: B1 chain with R7F, N58A
modifications: left off: small tags and cut ends
notes: as for B1

- Binding [2]: +
B5: R46C: point mutant of the Homer EVH1 domain (protein)
chain: B1 chain with R7F, R46C
modifications: left off: small tags and cut ends
notes: as for B1

- Binding [2]: +
B6: S35V: point mutant of the Homer EVH1 domain (protein)
chain: B1 chain with R7F, S35V
modifications: left off: small tags and cut ends
notes: as for B1

- Binding [2]: +
B7: E93K: point mutant of the Homer EVH1 domain (protein)
chain: B1 chain with R7F, E93K
modifications: left off: small tags and cut ends
notes: as for B1

- Binding [2]: +
B8: F74L: point mutant of the Homer EVH1 domain (protein)
chain: B1 chain with R7F, F74L
modifications: left off: small tags and cut ends
notes: as for B1

- Binding [2]: +
B9: H95A: point mutant of the Homer EVH1 domain (protein)
chain: B1 chain with R7F, H95A
modifications: left off: small tags and cut ends
notes: as for B1

- Binding [2]: +
B10: N64G: point mutant of the Homer EVH1 domain (protein)
chain: B1 chain with R7F, N64G
modifications: left off: small tags and cut ends
notes: as for B1

- Binding [2]: +
B11: Q72A: point mutant of the Homer EVH1 domain (protein)
chain: B1 chain with R7F, Q72A
modifications: left off: small tags and cut ends
notes: as for B1

- Binding [2]: +
B12: R42A: point mutant of the Homer EVH1 domain (protein)
chain: B1 chain with R7F, R42A
modifications: left off: small tags and cut ends
notes: as for B1

- Binding [2]: −
B13: F67S: point mutant of the Homer EVH1 domain (protein)
chain: B1 chain with R7F, F67S
modifications: left off: small tags and cut ends
notes: as for B1

- Binding [2]: +
B14: L96S: point mutant of the Homer EVH1 domain (protein)
chain: B1 chain with R7F, L96S
modifications: left off: small tags and cut ends
notes: as for B1

- Binding [2]: +
B15: F90S: point mutant of the Homer EVH1 domain (protein)
chain: B1 chain with R7F, F90S
modifications: left off: small tags and cut ends
notes: as for B1

- Binding [2]: +
B16: N23A: point mutant of the Homer EVH1 domain (protein)
chain: B1 chain with R7F, N23A
modifications: left off: small tags and cut ends
notes: as for B1

- Binding [2]: −
B17: S8L: point mutant of the Homer EVH1 domain (protein)
chain: B1 chain with R7F, S8L
modifications: left off: small tags and cut ends
notes: as for B1

- Binding [2]: −
B18: D39A: point mutant of the Homer EVH1 domain (protein)
chain: B1 chain with R7F, D39A
modifications: left off: small tags and cut ends
notes: as for B1

- Binding [2]: −
B19: S28A: point mutant of the Homer EVH1 domain (protein)
chain: B1 chain with R7F, S28A
modifications: left off: small tags and cut ends
notes: as for B1

- Binding [2]: +
B20: K69A: point mutant of the Homer EVH1 domain (protein)
chain: B1 chain with R7F, K69A
modifications: left off: small tags and cut ends
notes: as for B1

- Binding [2]: +
B21: V34M: point mutant of the Homer EVH1 domain (protein)
chain: B1 chain with R7F, V34M
modifications: left off: small tags and cut ends
notes: as for B1

- Binding [2]: −
B22: R46A: point mutant of the Homer EVH1 domain (protein)
chain: B1 chain with R7F, R46A
modifications: left off: small tags and cut ends
notes: as for B1

- Binding [2]: +
B23: I48A: point mutant of the Homer EVH1 domain (protein)
chain: B1 chain with R7F, I48A
modifications: left off: small tags and cut ends
notes: as for B1
